Measured values from paper PMC11491487.

Tests used:
[1] = molecular target: chiRyR-I4657M/G4819E (chiRyR carrying the two resistance mutations) (rabbit) (UniProt P11716); assay: cryo-EM structure; 5 mg/ml purified chiRyR samples with 5 mM caffeine, 2 mM ATP, 100 µM CaM1234, Ca2+, 2% or 5% DMSO, with or without diamide (50 µM FLU or TET; 625 µM CHL); 1 h at room temperature; C4 symmetry in refinement
[2] = molecular target: chimeric RyR (chiRyR): rabbit RyR1 carrying four Spodoptera frugiperda RyR residues of the diamide-binding pocket (rabbit) (UniProt P11716); assay: as above

| Substance | stoichiometry N [1] | stoichiometry N [2] |
| --- | --- | --- |
| chiRyR-I4657M/G4819E (chiRyR carrying the two resistance mutations), P11716 1-5037 (receptor) | 4 | – |
| chimeric RyR (chiRyR): rabbit RyR1 carrying four Spodoptera frugiperda RyR residues of the diamide-binding pocket, P11716 1-5037 (receptor) | – | 4 |
